T1: raCDH19(1-43)::FLAG::raCDH19(44-770) (construct W, Ra EC1-5) (rat)
T1 construct: leader (1-43 of the entry) left out; also called rat Cadherin19
T1 chain: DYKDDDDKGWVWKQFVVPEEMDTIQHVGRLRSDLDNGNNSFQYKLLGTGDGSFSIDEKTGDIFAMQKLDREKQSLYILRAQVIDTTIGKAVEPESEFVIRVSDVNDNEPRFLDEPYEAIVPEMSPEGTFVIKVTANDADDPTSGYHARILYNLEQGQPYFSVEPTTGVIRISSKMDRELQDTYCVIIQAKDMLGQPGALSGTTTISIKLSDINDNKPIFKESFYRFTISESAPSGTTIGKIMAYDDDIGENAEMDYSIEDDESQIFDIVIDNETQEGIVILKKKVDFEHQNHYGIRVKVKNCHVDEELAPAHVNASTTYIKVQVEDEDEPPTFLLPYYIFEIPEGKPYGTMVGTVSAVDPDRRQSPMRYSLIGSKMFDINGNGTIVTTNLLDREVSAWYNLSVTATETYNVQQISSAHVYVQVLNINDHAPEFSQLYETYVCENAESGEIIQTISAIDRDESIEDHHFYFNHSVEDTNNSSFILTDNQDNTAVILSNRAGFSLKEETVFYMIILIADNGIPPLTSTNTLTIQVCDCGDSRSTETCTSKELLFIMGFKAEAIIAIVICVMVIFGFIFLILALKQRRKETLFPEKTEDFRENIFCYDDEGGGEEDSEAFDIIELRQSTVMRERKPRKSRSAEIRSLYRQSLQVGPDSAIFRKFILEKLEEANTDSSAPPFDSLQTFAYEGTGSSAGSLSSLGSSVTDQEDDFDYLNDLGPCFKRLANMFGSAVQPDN

T2: rhCDH19(1-43)::FLAG::rhCDH19(44-772) (construct P, Rh EC1-5) (rhesus macaque, UniProt Q9H159 44-772 (human entry))
T2 construct: leader (1-43 of the entry) left out; also called rhesus macaque Cadherin19
T2 chain: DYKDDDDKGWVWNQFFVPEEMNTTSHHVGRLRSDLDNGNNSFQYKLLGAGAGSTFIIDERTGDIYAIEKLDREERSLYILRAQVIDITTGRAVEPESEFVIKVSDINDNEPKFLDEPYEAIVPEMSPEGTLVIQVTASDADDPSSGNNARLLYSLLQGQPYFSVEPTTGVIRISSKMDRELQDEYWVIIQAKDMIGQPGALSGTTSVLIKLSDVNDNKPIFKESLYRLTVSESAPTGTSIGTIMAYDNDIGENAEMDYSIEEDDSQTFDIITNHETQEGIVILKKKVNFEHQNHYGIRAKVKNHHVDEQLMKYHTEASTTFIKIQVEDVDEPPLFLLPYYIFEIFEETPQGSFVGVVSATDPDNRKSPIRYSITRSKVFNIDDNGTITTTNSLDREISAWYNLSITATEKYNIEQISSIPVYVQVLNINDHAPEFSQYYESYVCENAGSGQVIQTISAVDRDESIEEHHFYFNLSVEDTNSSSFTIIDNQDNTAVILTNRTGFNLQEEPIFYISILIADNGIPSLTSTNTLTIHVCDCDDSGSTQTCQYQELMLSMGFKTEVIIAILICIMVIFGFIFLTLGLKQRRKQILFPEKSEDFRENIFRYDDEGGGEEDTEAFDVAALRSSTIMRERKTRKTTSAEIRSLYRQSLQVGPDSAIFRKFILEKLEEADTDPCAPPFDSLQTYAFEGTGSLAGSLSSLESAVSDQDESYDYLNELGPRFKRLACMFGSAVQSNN

T3: rhCDH19(1-43)::FLAG::rhCDH19(44-141)::raCDH19(140-247)::rhCDH19(250-772) (construct V, ra EC2) (rhesus macaque/rat chimera, UniProt Q9H159 44-772 (human entry))
T3 construct: leader (1-43 of the entry) left out
T3 chain: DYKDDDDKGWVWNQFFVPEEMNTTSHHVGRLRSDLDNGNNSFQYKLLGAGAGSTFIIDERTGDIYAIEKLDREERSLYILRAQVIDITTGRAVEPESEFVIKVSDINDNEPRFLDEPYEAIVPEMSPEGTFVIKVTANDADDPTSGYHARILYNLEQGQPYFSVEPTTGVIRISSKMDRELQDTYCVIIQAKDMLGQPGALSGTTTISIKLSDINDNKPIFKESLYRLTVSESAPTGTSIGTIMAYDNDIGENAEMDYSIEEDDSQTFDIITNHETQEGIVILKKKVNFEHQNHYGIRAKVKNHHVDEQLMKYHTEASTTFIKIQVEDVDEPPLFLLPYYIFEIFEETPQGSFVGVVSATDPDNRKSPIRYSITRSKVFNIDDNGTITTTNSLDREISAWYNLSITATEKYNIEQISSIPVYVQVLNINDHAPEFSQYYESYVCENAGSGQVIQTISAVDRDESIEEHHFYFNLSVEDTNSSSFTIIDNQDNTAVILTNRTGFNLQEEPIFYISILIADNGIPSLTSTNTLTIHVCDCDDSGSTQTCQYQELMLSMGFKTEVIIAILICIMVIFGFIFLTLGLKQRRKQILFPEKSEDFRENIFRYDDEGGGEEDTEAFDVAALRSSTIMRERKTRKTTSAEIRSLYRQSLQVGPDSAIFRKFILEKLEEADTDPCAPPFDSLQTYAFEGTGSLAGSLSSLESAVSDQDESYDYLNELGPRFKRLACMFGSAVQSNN


Experiments:
[1] = molecular target: T1, raCDH19(1-43)::FLAG::raCDH19(44-770) …; assay: flow cytometry, transfected 293T cells, 2 mM CaCl2;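 also: antibody binding read out as cell-bound Alexa647 label signal, with mock-transfected cells as controls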
Method: (§1) The following binding assay was completed in presence of 2 mM CaCl₂). […] Cells were then washed one time and the amount of cell associated Alexa647-labelled Ab was quantitated by flow cytometry. The experiments included mock transfected controls.

[2] = molecular target: T2, rhCDH19(1-43)::FLAG::rhCDH19(44-772) …; assay: flow cytometry, transfected 293T cells, 2 mM CaCl2;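 also: antibody binding read out as cell-bound Alexa647 label signal, with mock-transfected cells as controls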
Method: as §1

[3] = molecular target: T4, Human Cadherin-19 (human, UniProt Q9H159 44-772); assay: FACS, endogenous CDH-19 on CHL-1 and Colo699 tumor cells
T4 construct: also called CDH19; huCDH19
Method: FACS binding assays were performed to evaluate the binding of the anti-Cadherin-19 receptor specific antibodies to endogenous Cadherin-19 receptor expressed on the CHL-1 tumor cell lines.
FACs assays were performed by incubating hybridoma supernatants with 10,000 to 25,000 cells in PBS/2% Fetal bovine serum/2 mM Calcium Chloride at 4° C. for one hour followed by two washes with PBS/2% Fetal bovine serum/2 mM Calcium Chloride. Cells were then treated with florochrome-labeled secondary antibodies at 4° C. followed by one wash. The cells were resuspended in 50 μl of PBS/2% FBS and antibody binding was analyzed using a FACSCalibur™ instrument.

[4] = molecular target: T3, rhCDH19(1-43)::FLAG::rhCDH19(44-141)::ra …; assay: flow cytometry, transfected 293T cells, 2 mM CaCl2;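 also: antibody binding read out as cell-bound Alexa647 label signal, with mock-transfected cells as controls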
Method: as §1

Binder | binding result [1] | binding result [2] | binding result [3] | binding result [4]
anti-CDH19 antibody 2G6 (Ab ID 13588) (antibody, human IgG1, lambda, V domains shown, Bin 4) VH: QVQLVESGGGVVQPGRSLRLSCAASGFTFSSYGMHWVRQAPGKGLEWVAFIWYDGSNKYYADSVKDRFTISRDNSKNTLYLQMKSLRAEDTAVYYCARRAGIIGTIGYYYGMDVWGQGTTVTVSS VL: SYELTQPPSVSVSPGQTASITCSGDRLGEKYTCWYQQRPGQSPLLVIYQDTKRPSGIPERFSGSNSGNTATLTISGTQAMDEADYYCQAWDSSTVVFGGGTKLTVLG | binds | binds | binds | 
hu anti-<huCDH19> 23A10.3 (1-474)(L92Q) VH::huIgG1z + 23A10.3 (1-231)(C42S) VL::huLLC-C2 (Ab ID 14077) (antibody, V domains shown, Engineered variant of 23A10; the entries already carry the changes; Bin 4) VH: QVQLVESGGGVVQPGRSLRLSCAASGFTFSRYGIHWVRQAPGKGLEWVAVIWYDGSNKYYADSVKGRFTISRDNSKNTLYLQMNSLRAEDSAVYYCARRAGIPGTTGYYYGMDVWGQGTTVTVSS VL: SYELTQPPSVSVSPGQTASITCSGDRLGEKYVSWYQQKPGQSPILVIYQDNKWPSGIPERFSGSNSGNTATLTISGTQAMDEADYYCQAWDSSTVVFGGGTKLTVLG | binds | binds |  | 
anti-CDH19 antibody 4A2 (Ab ID 13592) (antibody, human IgG1, kappa, V domains shown, Bin 4) VH: QVQLQESGPGLVKPSQTLSLTCTVSGGSISSSGYYWSWIRQHPGKGLEWIGYIYYTGSAYYNPSLKSRVTISVDTSKNQFSLKLSSVTAADTAVYYCARDGSSGWYFQYWGQGTLVTVSS VL: EIVLTQSPGTLSLSPGERATLSCRASRNISSSYLAWYQQKPGQAPRLLIYGPSSRATGIPDRFSGSGSGTDFTLTISRLEPEDFTVYYCQQYGSSFTFGPGTKVDIKR |  | binds |  | 
hu anti-<huCDH19> 26D1.1 (Ab ID 13882) (antibody, human IgG1, lambda, V domains shown, huIgG1z / huLLC-C2; Bin 2) VH: QVQLVQSGAEVKKPGASVKVSCKASRYTFTSYYMSWVRQAPGQGLEWMGIIHPSGGDTTYAQKFQGRVTMTGDTSTSTVYMELSSLRSEDTAVYYCARGGIKLWLHFDYWGQGTLVTVSS VL: not shown | no binding (tested: 5 ug/ml) | binds | binds | no binding (tested: 5 ug/ml)
hu anti-<huCDH19> 25F8.1 (1-469)(F90Y) VH::huIgG1z + 25F8.1 (1-235)(K45Q,S102A,D111E) VL::huLLC-C2 (Ab ID 14096) (antibody, V domains shown, Engineered variant of 25F8; the entries already carry the changes; Bin 2) VH: QVQLVQSGAEVKKPGASVKVSCKASGYTFTSYYIHWVRQAPGQGLEWMGIINPSGGSTRYAQKFQGRVTMTRDTSTSTVYMELSSLRSEDTAVYYCARGGIQLWLHFDYWGQGTLVTVSS VL: not shown | no binding (tested: 5 ug/ml) | binds |  | no binding (tested: 5 ug/ml)
hu anti-<huCDH19> 4B10 (Ab ID 13590) (antibody, V domains shown, huIgG1z / huKLC; Bin 4) VH: QVQLVESGGGVVQPGRSLRLSCAASGFTFSSYDMHWVRQAPGKGLEWVAVISYDGTNEYYADSVKGRFTISRDTSKNTLYLQMNSLRAEDTAVYYCARERYFDWSFDYWGQGTLVSVSS VL: EIVLTQSPGTLSLSPGERATLSCRASQSVSNTYLAWYHQRPGQAPRLLIYGASSRATGIPDRFSGSGSGTDFALTISSLEPEDFAVYYCQQYSNSWTFGQGTKVEIKR | binds | binds | binds | 
hu anti-<huCDH19> 4A9 (Ab ID 13589) (antibody, human IgG1, lambda, V domains shown, huIgG1z / huLLC-C1; Bin 1) VH: QVQLQESGPGLVKPSETLSLTCTVSGGSISGYYWSWIRQPPGKGLEWFAYFSYSGSTNYNPSLKSRVTLSVDTSKNQFSLKLSSVTAADTAVYYCARNWAFHFDFWGQGTLVTVSS VL: QSVLTQPPSVSGAPGQRVTISCTGSSSNIGTGYAVHWYQQFPGTAPKLLIYGNNNRPSGVPDRFSGSKSGTSASLAITGLQAEDEADYYCQSYDSRLSGWVFGGGTKLTVLG | no binding (tested: 5 ug/ml) | binds | binds | no binding (tested: 5 ug/ml)

Source: US20220127354A1 (Amgen, published 2022)
